Experimental data from publication PMC7367873, “Dissecting the sequence determinants for dephosphorylation by the catalytic subunits of phosphatases PP1 and PP2A” (Nature Communications, 2020).

Experiments:
[1] = tested on: GFP-14-3-3β and its binding proteins; experiment: GFP-14-3-3β co-IP with LC-MS/MS label-free quantification, untreated versus PP1c-treated; design: species or system human; details: pairwise comparison PP1 vs untreated, student's t-test; 3 replicates each; LC-MS/MS label-free quantification
[2] = tested on: GFP-14-3-3β; experiment: GFP-14-3-3β co-IP with LC-MS/MS, untreated GFP-14-3-3β versus GFP control (14-3-3 interactome); format: binding, human; details: pairwise comparison untreated GFP-14-3-3β vs GFP, student's t-test; 3 replicates each; LC-MS/MS label-free quantification

Molecule	Difference (log2), PP1 vs untreated [1] [log2]	Difference (log2), untreated vs GFP [2] [log2]
SHCBP1 (protein, UniProt Q8NEM2 2-672, looked up) SHC SH2 domain-binding …: ADGSLTGGGLEAAAMAPERMGWAVEQELASLEKGLFQDEDSCSDCSYRDKPGSSLQSFMPEGKTFFPEIFQTNQLLFYERFRAYQDYILADCKASEVQEFTAEFLEKVLEPSGWRAVWHTNVFKVLVEITDVDFAALKAVVRLAEPYLCDSQVSTFTMECMKELLDLKEHRLPLQELWVVFDDSGVFDQTALAIEHVRFFYQNIWRSWDEEEEDEYDYFVRCVEPRLRLHYDILEDRVPSGLIVDYHNLLSQCEESYRKFLNLRSSLSNCNSDSEQENISMVEGLKLYSEMEQLKQKLKLIENPLLRYVFGYQKNSNIQAKGVRSSGQKITHVVSSTMMAGLLRSLLTDRLCQEPGEEEREIQFHSDPLSAINACFEGDTVIVCPGHYVVHGTFSIADSIELEGYGLPDDIVIEKRGKGDTFVDCTGADIKISGIKFVQHDAVEGILIVHRGKTTLENCVLQCETTGVTVRTSAEFLMKNSDLYGAKGAGIEIYPGSQCTLSDNGIHHCKEGILIKDFLDEHYDIPKISMVNNIIHNNEGYGVVLVKPTIFSDLQENAEDGTEENKALKIQTSGEPDVAERVDLEELIECATGKMELCARTDPSEQVEGNCEIVNELIAASTQKGQIKKKRLSELGITQADDNLMSQEMFVGIVGNQFKWNGKGSFGTFLF	-3.298	4.099
IRS2 (protein, UniProt Q9Y4H2 1-1338, looked up) Insulin receptor substrate 2: MASPPRHGPPGPASGDGPNLNNNNNNNNHSVRKCGYLRKQKHGHKRFFVLRGPGAGGDEATAGGGSAPQPPRLEYYESEKKWRSKAGAPKRVIALDCCLNINKRADAKHKYLIALYTKDEYFAVAAENEQEQEGWYRALTDLVSEGRAAAGDAPPAAAPAASCSASLPGALGGSAGAAGAEDSYGLVAPATAAYREVWQVNLKPKGLGQSKNLTGVYRLCLSARTIGFVKLNCEQPSVTLQLMNIRRCGHSDSFFFIEVGRSAVTGPGELWMQADDSVVAQNIHETILEAMKALKELFEFRPRSKSQSSGSSATHPISVPGARRHHHLVNLPPSQTGLVRRSRTDSLAATPPAAKCSSCRVRTASEGDGGAAAGAAAAGARPVSVAGSPLSPGPVRAPLSRSHTLSGGCGGRGSKVALLPAGGALQHSRSMSMPVAHSPPAATSPGSLSSSSGHGSGSYPPPPGPHPPLPHPLHHGPGQRPSSGSASASGSPSDPGFMSLDEYGSSPGDLRAFCSHRSNTPESIAETPPARDGGGGGEFYGYMTMDRPLSHCGRSYRRVSGDAAQDLDRGLRKRTYSLTTPARQRPVPQPSSASLDEYTLMRATFSGSAGRLCPSCPASSPKVAYHPYPEDYGDIEIGSHRSSSSNLGADDGYMPMTPGAALAGSGSGSCRSDDYMPMSPASVSAPKQILQPRAAAAAAAAVPSAGPAGPAPTSAAGRTFPASGGGYKASSPAESSPEDSGYMRMWCGSKLSMEHADGKLLPNGDYLNVSPSDAVTTGTPPDFFSAALHPGGEPLRGVPGCCYSSLPRSYKAPYTCGGDSDQYVLMSSPVGRILEEERLEPQATPGPSQAASAFGAGPTQPPHPVVPSPVRPSGGRPEGFLGQRGRAVRPTRLSLEGLPSLPSMHEYPLPPEPKSPGEYINIDFGEPGARLSPPAPPLLASAASSSSLLSASSPASSLGSGTPGTSSDSRQRSPLSDYMNLDFSSPKSPKPGAPSGHPVGSLDGLLSPEASSPYPPLPPRPSASPSSSLQPPPPPPAPGELYRLPPASAVATAQGPGAASSLSSDTGDNGDYTEMAFGVAATPPQPIAAPPKPEAARVASPTSGVKRLSLMEQVSGVEAFLQASQPPDPHRGAKVIRADPQGGRRRHSSETFSSTTTVTPVSPSFAHNPKRHNSASVENVSLRKSSEGGVGVGPGGGDEPPTSPRQLQPAPPLAPQGRPWTPGQPGGLVGCPGSGGSPMRRETSAGFQNGLNYIAIDVREEPGLPPQPQPPPPPLPQPGDKSSWGRTRSLGGLISAVGVGSTGGGCGGPGPGALPPANTYASIDFLSHHLKEATIVKE	-3.665	7.914
CCDC6 (protein, UniProt Q16204 2-474, looked up) Coiled-coil domain-containing …: ADSASESDTDGAGGNSSSSAAMQSSCSSTSGGGGGGGGGGGGGKSGGIVISPFRLEELTNRLASLQQENKVLKIELETYKLKCKALQEENRDLRKASVTIQARAEQEEEFISNTLFKKIQALQKEKETLAVNYEKEEEFLTNELSRKLMQLQHEKAELEQHLEQEQEFQVNKLMKKIKKLENDTISKQLTLEQLRREKIDLENTLEQEQEALVNRLWKRMDKLEAEKRILQEKLDQPVSAPPSPRDISMEIDSPENMMRHIRFLKNEVERLKKQLRAAQLQHSEKMAQYLEEERHMREENLRLQRKLQREMERREALCRQLSESESSLEMDDERYFNEMSAQGLRPRTVSSPIPYTPSPSSSRPISPGLSYASHTVGFTPPTSLTRAGMSYYNSPGLHVQHMGTSHGITRPSPRRSNSPDKFKRPTPPPSPNTQTPVQPPPPPPPPPMQPTVPSAATSQPTPSQHSAHPSSQP	-3.654	4.515

Second part, led by results:

Difference (log2), PP1 vs untreated [1] [log2]	Molecule	Difference (log2), untreated vs GFP [2] [log2]
-3.2926	TSC1 (protein, UniProt Q92574 1-1164, looked up) Hamartin: MAQQANVGELLAMLDSPMLGVRDDVTAVFKENLNSDRGPMLVNTLVDYYLETSSQPALHILTTLQEPHDKHLLDRINEYVGKAATRLSILSLLGHVIRLQPSWKHKLSQAPLLPSLLKCLKMDTDVVVLTTGVLVLITMLPMIPQSGKQHLLDFFDIFGRLSSWCLKKPGHVAEVYLVHLHASVYALFHRLYGMYPCNFVSFLRSHYSMKENLETFEEVVKPMMEHVRIHPELVTGSKDHELDPRRWKRLETHDVVIECAKISLDPTEASYEDGYSVSHQISARFPHRSADVTTSPYADTQNSYGCATSTPYSTSRLMLLNMPGQLPQTLSSPSTRLITEPPQATLWSPSMVCGMTTPPTSPGNVPPDLSHPYSKVFGTTAGGKGTPLGTPATSPPPAPLCHSDDYVHISLPQATVTPPRKEERMDSARPCLHRQHHLLNDRGSEEPPGSKGSVTLSDLPGFLGDLASEEDSIEKDKEEAAISRELSEITTAEAEPVVPRGGFDSPFYRDSLPGSQRKTHSAASSSQGASVNPEPLHSSLDKLGPDTPKQAFTPIDLPCGSADESPAGDRECQTSLETSIFTPSPCKIPPPTRVGFGSGQPPPYDHLFEVALPKTAHHFVIRKTEELLKKAKGNTEEDGVPSTSPMEVLDRLIQQGADAHSKELNKLPLPSKSVDWTHFGGSPPSDEIRTLRDQLLLLHNQLLYERFKRQQHALRNRRLLRKVIKAAALEEHNAAMKDQLKLQEKDIQMWKVSLQKEQARYNQLQEQRDTMVTKLHSQIRQLQHDREEFYNQSQELQTKLEDCRNMIAELRIELKKANNKVCHTELLLSQVSQKLSNSESVQQQMEFLNRQLLVLGEVNELYLEQLQNKHSDTTKEVEMMKAAYRKELEKNRSHVLQQTQRLDTSQKRILELESHLAKKDHLLLEQKKYLEDVKLQARGQLQAAESRYEAQKRITQVFELEILDLYGRLEKDGLLKKLEEEKAEAAEAAEERLDCCNDGCSDSMVGHNEEASGHNGETKTPRPSSARGSSGSRGGGGSSSSSSELSTPEKPPHQRAGPFSSRWETTMGEASASIPTTVGSLPSSKSFLGMKARELFRNKSESQCDEDGMTSSLSESLKTELGKDLGVEAKIPLNLDGPHPSPPTPDSVGQLHIMDYNETHHEHS	2.521
-3.391	ZFP36L2 (protein, UniProt P47974 1-494, looked up) mRNA decay activator protein …: MSTTLLSAFYDVDFLCKTEKSLANLNLNNMLDKKAVGTPVAAAPSSGFAPGFLRRHSASNLHALAHPAPSPGSCSPKFPGAANGSSCGSAAAGGPTSYGTLKEPSGGGGTALLNKENKFRDRSFSENGDRSQHLLHLQQQQKGGGGSQINSTRYKTELCRPFEESGTCKYGEKCQFAHGFHELRSLTRHPKYKTELCRTFHTIGFCPYGPRCHFIHNADERRPAPSGGASGDLRAFGTRDALHLGFPREPRPKLHHSLSFSGFPSGHHQPPGGLESPLLLDSPTSRTPPPPSCSSASSCSSSASSCSSASAASTPSGAPTCCASAAAAAAAALLYGTGGAEDLLAPGAPCAACSSASCANNAFAFGPELSSLITPLAIQTHNFAAVAAAAYYRSQQQQQQQGLAPPAQPPAPPSATLPAGAAAPPSPPFSFQLPRRLSDSPVFDAPPSPPDSLSDRDSYLSGSLSSGSLSGSESPSLDPGRRLPIFSRLSISDD	3.556
-3.585	RAPGEF2 (protein, UniProt Q9Y4G8 1-1499, looked up) Rap guanine nucleotide …: MKPLAIPANHGVMGQQEKHSLPADFTKLHLTDSLHPQVTHVSSSHSGCSITSDSGSSSLSDIYQATESEAGDMDLSGLPETAVDSEDDDDEEDIERASDPLMSRDIVRDCLEKDPIDRTDDDIEQLLEFMHQLPAFANMTMSVRRELCAVMVFAVVERAGTIVLNDGEELDSWSVILNGSVEVTYPDGKAEILCMGNSFGVSPTMDKEYMKGVMRTKVDDCQFVCIAQQDYCRILNQVEKNMQKVEEEGEIVMVKEHRELDRTGTRKGHIVIKGTSERLTMHLVEEHSVVDPTFIEDFLLTYRTFLSSPMEVGKKLLEWFNDPSLRDKVTRVVLLWVNNHFNDFEGDPAMTRFLEEFENNLEREKMGGHLRLLNIACAAKAKRRLMTLTKPSREAPLPFILLGGSEKGFGIFVDSVDSGSKATEAGLKRGDQILEVNGQNFENIQLSKAMEILRNNTHLSITVKTNLFVFKELLTRLSEEKRNGAPHLPKIGDIKKASRYSIPDLAVDVEQVIGLEKVNKKSKANTVGGRNKLKKILDKTRISILPQKPYNDIGIGQSQDDSIVGLRQTKHIPTALPVSGTLSSSNPDLLQSHHRILDFSATPDLPDQVLRVFKADQQSRYIMISKDTTAKEVVIQAIREFAVTATPDQYSLCEVSVTPEGVIKQRRLPDQLSKLADRIQLSGRYYLKNNMETETLCSDEDAQELLRESQISLLQLSTVEVATQLSMRNFELFRNIEPTEYIDDLFKLRSKTSCANLKRFEEVINQETFWVASEILRETNQLKRMKIIKHFIKIALHCRECKNFNSMFAIISGLNLAPVARLRTTWEKLPNKYEKLFQDLQDLFDPSRNMAKYRNVLNSQNLQPPIIPLFPVIKKDLTFLHEGNDSKVDGLVNFEKLRMIAKEIRHVGRMASVNMDPALMFRTRKKKWRSLGSLSQGSTNATVLDVAQTGGHKKRVRRSSFLNAKKLYEDAQMARKVKQYLSNLELEMDEESLQTLSLQCEPATNTLPKNPGDKKPVKSETSPVAPRAGSQQKAQSLPQPQQQPPPAHKINQGLQVPAVSLYPSRKKVPVKDLPPFGINSPQALKKILSLSEEGSLERHKKQAEDTISNASSQLSSPPTSPQSSPRKGYTLAPSGTVDNFSDSGHSEISSRSSIVSNSSFDSVPVSLHDERRQRHSVSIVETNLGMGRMERRTMIEPDQYSLGSYAPMSEGRGLYATATVISSPSTEELSQDQGDRASLDAADSGRGSWTSCSSGSHDNIQTIQHQRSWETLPFGHTHFDYSGDPAGLWASSSHMDQIMFSDHSTKYNRQNQSRESLEQAQSRASWASSTGYWGEDSEGDTGTIKRRGGKDVSIEAESSSLTSVTTEETKPVPMPAHIAVASSTTKGLIARKEGRYREPPPTPPGYIGIPITDFPEGHSHPARKPPDYNVALQRSRMVARSSDTAGPSSVQQPHGHPTSSRPVNKPQWHKPNESDPRLAPYQSQGFSTEEDEDEQVSAV	2.788
